The values below come from patent publication CN108203464A (GENSCRIPT NANJING CO LTD, dated 2018).

Test [1] has as its target human PD-1 expressed on cells (human, UniProt Q15116 25-288). Nature of the test: cell-based or functional assay.
Test [2] has as its target T1, 重组蛋白PD-1-Fc (GenScript, Z03370): human PD-1 extracellular domain fused to human IgG1 Fc (human, UniProt Q15116 25-170).
T1 construct: extracellular domain; Bought reagent (GenScript Z03370); also called PD-1-Fc重组蛋白; PD-1-Fc融合蛋白; not shown: human IgG1 Fc segment
Nature of the test: indirect ELISA, PD-1-Fc coated at 0.5 μg/ml. In general terms: ELISA stands for enzyme-linked immunosorbent assay.

In test [3] the target is T2, 重组人PD-1蛋白 (recombinant human PD-1 protein) (human, UniProt Q15116 25-167, limits assumed).
T2 construct: also called 重组蛋白PD-1
Briefly: competition ELISA: human PD-1 coated, biotin-PD-L1-Fc 0.15 μg/ml as competitor.

human PD-1 expressed on cells, sequence (Q15116 25-288): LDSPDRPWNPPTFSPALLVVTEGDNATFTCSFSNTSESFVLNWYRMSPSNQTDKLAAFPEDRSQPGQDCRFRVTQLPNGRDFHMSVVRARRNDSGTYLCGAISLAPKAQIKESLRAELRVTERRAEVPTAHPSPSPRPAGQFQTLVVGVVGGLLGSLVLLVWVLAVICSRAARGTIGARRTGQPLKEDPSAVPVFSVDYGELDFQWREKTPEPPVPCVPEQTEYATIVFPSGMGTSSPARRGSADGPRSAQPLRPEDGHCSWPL
T2 sequence (Q15116 25-167 limits assumed): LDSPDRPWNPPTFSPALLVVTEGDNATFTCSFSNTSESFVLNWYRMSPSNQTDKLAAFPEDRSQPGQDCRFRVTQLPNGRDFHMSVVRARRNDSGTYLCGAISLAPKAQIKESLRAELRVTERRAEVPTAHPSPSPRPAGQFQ
T1 sequence (Q15116 25-170 limits assumed, one chain of several): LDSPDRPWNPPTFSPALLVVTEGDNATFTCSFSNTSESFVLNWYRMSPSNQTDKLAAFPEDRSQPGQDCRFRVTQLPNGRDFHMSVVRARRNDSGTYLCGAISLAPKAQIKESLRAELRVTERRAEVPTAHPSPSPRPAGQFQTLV

B1: 2E5E4D11 (antibody, V domains shown)
VH: EVKLVESGGVLVQPGGSLKLSCAASGFTFSSYTMSWVRQTPEKRLEWVAYISGGGGDTYYPDTVKGRFTISRDNAKNTLYLQMNSLKSGDTAMYYCARHGYDAACFAYWGQGTLVTVSA
VL: DIVMTQSHKFMSTSVGDRVSFTCKASQDVNTAVAWYQQKPGQSPKLLIYWASTRHTGVPDRFTGSGSGTDYTLTISSVQAEDLALYYCQQHYSIPWTVGGGTKLEIK
notes: I took the two as the same clone (likely a misprint); also called 2E5E4E11
Take B1: in test [1], the “IL-2 secretion, mixed lymphocyte reaction (CD4+ T cells + allogeneic dendritic cells), EC50” value came out at 0.929 μg/ml and the “RLU, NFAT-RE reporter effector cells (PD-1) co-cultured with PD-L1 target cells, EC50” value (“RLU, NFAT-RE reporter effector cells” below) came out at 1.01 µg/mL. In test [2], this molecule yielded a concentration giving a half-maximal response (EC50) of 0.00465 µg/mL. Moreover, the 50% inhibitory concentration (IC50) in test [3] is 0.429 µg/mL.

B2: 154G5A5B7 (antibody, V domains shown)
VH: QVQLKESGPGLVAPSQSLSITCTVSGFSLTVYGVNWVRQPPGKGLEWLGMIWGDGTTDYNSALKSRLIINKDNSKSQVFLKMNSLQTDDTARYYCARDDYGTFLYWGQGTLVTVSA
VL: DIVMSQSPSSLAVSAGEKVTMSCKSSQSLLNSRTRKNYLAWYQQKPGQSPKLLIFWASTRESGVPDRFTGSVSGTDFTLTISSVQAEDLAVYYCKQSYTLRTFGGGTKLEIK
As for B2, in test [1], the “IL-2 secretion, mixed lymphocyte reaction (CD4+ T cells + allogeneic dendritic cells), EC50” value was 1.12 μg/ml and the “RLU, NFAT-RE reporter effector cells” value stood at 1.42 µg/mL. In test [2], this molecule displayed an EC50 of 0.00872 µg/mL. In addition, the concentration for half-maximal inhibition (IC50) in test [3] stood at 0.366 µg/mL.

B3: 1H10C4D4 (antibody, V domains shown)
VH: EVKLVESGGGLVKPGGSLKLSCAASGFTFSSYDMSWVRQTPDKRLEWVATISGGGSYTYYPDSVKGRFTISRDNAKNNLYLQMSSLRSEDTALYYCGSPYGKYGMEYWGQGTSVTVSS
VL: DIVMTQSHKFMSTSVGDRVSITCKASQDVGSVVAWYQQKPGQSPKLLIYWASTRHTGVPDRFTGSGSGTDFTLTISNVQSEDLADYFCQQYSSYPLTFGSGTKLELK
notes: Detected with goat anti-mouse IgG
For B3, in test [1], the “IL-2 secretion, mixed lymphocyte reaction (CD4+ T cells + allogeneic dendritic cells), EC50” value is 0.064 μg/ml and the “RLU, NFAT-RE reporter effector cells” value amounted to 1.13 µg/mL. This molecule had an EC50 in test [2] of 0.00681 µg/mL. Also, the 50% inhibitory concentration (IC50) in test [3] turned out to be 0.493 µg/mL.

As a reminder, the EC50 is the concentration that produces a half-maximal response. A lower EC50 goes with greater potency. The IC50 is the concentration needed to halve the response being measured.
